Reference: patent publication US8026342B2, “Compositions and methods for binding sphingosine-1-phosphate” (Lpath, Inc., priority 2006, dated 2011)

B1: LT1002: murine anti-S1P monoclonal antibody, IgG1 kappa, from hybridoma clone 306D326.26 (antibody, listed as Mus sp., V domains shown)
VH: QAHLQQSDAELVKPGASVKISCKVSGFIFIDHTIHWMKQRPEQGLEWIGCISPRHDITKYNEMFRGKATLTADKSSTTAYIQVNSLTFEDSAVYFCARGGFYGSTIWFDFWGQGTTLTVS
VL: ETTVTQSPASLSMAIGEKVTIRCITTTDIDDDMNWFQQKPGEPPNLLISEGNILRPGVPSRFSSSGYGTDFLFTIENMLSEDVADYYCLQSDNLPFTFGSGTKLEIK

Legend:
retinal macrophages = test: Oxygen induced retinopathy (ROP) model: retinal macrophage infiltration; assay type: in vivo, C57BL/6 mice; settings: 5 μg intraocular at day 12, read at day 17
Protocol: At day 17 of life, the mice received an intraocular injection of FITC-labeled antibody to F4/80 (a pan-macrophage marker) and after 8 hours, mice were euthanized. The globes were removed and fixed in PBS-buffered formalin at room temperature for 5 hours. Retinas were dissected and washed with phosphate-buffered saline containing 0.25% Triton X-100 and whole mounted. Slides were viewed with a Nikon Fluorescence Microscope and retinal macrophages were quantified.

[1] = system: cardiac scar formation / immune-cell wound infiltration; test: Permanent myocardial infarction murine model (fibrosis, immune cell infiltration); assay type: in vivo, mice
Protocol: SPHINGOMAB reduced immune-cell wound infiltration in vivo. Mice were subjected to MI, treated with saline or 25 mg/kg SPHINGOMAB 48 hr. after surgery and then sacrificed on day 4. SPHINGOMAB reduced macrophage (A) and mast cell (B) infiltration into the wound. Data are represented as fold decrease of saline-treated values.
Studies evaluated the efficacy of SPHINGOMAB to reduce cardiac scar formation after permanent myocardial infarction (MI) via ligation of the left descending coronary artery in mice. Systemic administration of 25 mg/kg SPHINGOMAB or saline was initiated 48 hrs after surgery. Antibody administration at 48 hr. was chosen to allow normal, reparative scar formation to occur during the early remodeling phase and permit beneficial, S1P-stimulated angiogenesis immediately after the MI. Two weeks after the infarct, mice were sacrificed and fibrosis was accessed by Masson's trichrome staining of the cardiac tissue. […] As a control for any non-specific wound-healing responses, sham animals underwent thoracotomy without coronary artery ligation (FIG. 7E).
Based upon the similarities of immune and inflammatory responses in CNV and CVD, the efficacy of SPHINGOMAB to mitigate immune cell infiltration into a wound was evaluated in a murine infarct model as an indication of SPHINGOMAB's potential effects in mitigating these damages during AMD [Vine, et al. (2005), Ophthalmology., vol 112: 2076-80; and Seddon and Chen (2004), Int Ophthalmol Clin., vol 44: 17-39]. Four days post-MI, macrophage and mast cell infiltration was evaluated using MAC-1 and MCG35 antibodies, respectively, within the area at risk.

CNV lesions = test: Laser-induced rupture of Bruch's membrane, murine CNV model (Example 4); assay type: in vivo, C57BL6/J mice; settings: 0.5 μg
Protocol: Female C57BL6/J mice were subjected to laser-induced rupture of Bruch's membrane and administered either 0.5 μg of Sphingomab or an isotype-matched non-specific (NS) antibody diluted in 2 μl of physiological saline. Mice were sacrificed 14 and 28 days after laser rupture.
To induce CNV lesions, the pupils were dilated with ophthalmic tropicamide (0.5%) and phenylephrine (2.5%). A coverslip was placed on the eye. An Oculight GL 532 nm (Iridex Corporation, Mountain View, Calif.) coupled to a slit lamp set to deliver a 100 msec pulse at 150 mW with a 50 μm spot size was used to rupture Bruch's membrane in three quadrants of the right eye located approximately 50 μm from the optic disc at relative 9, 12 and 3 o'clock positions. The left eye served as an uninjured control in all cases. Any lesion not associated with a vapor bubble or lesions that became confluent were excluded from analysis.
To measure CNV lesion size, choroidal flatmounts of the sclera-choroid-RPE complex were prepared and stained for vasculature (R. communis agglutinin I; red) and pericytes (CD 140b; green). […]
To assess collagen deposition, the sclera-choroid-RPE complex was stained with Masson's Trichrome. […] Approximately 30 sections per lesion were evaluated. Quantitation of the volume of collagen deposition was calculated in the same manner as described for CNV lesion volume.

[2] = 28-day toxicity and toxicokinetic study of LT1002 in mice; assay type: in vivo; settings: 28 days
Protocol: The purpose of this study was to determine the toxicity and toxicokinetic profile of the murine anti-S1P monoclonal antibody, LT1002, following daily administration to C57/BL6 mice. The study was conducted by an independent contract laboratory organization, LAB Research, Inc. The LT1002 dosing solutions were administered for 28 consecutive days to animals in each group by bolus intravenous injection via the tail vein (Days 1-14) and then by bolus intraperitoneal injection (Days 15-28), over a period of approximately 0.5-1.0 minute. The treated group animals were dosed with LT1002 at 30, 75 or 200 mg/kg (n=6 per group) and compared to animals treated with PBS as a saline (vehicle) control group.
During the study, animals were monitored for effects on mortality, clinical condition, body weight and food consumption. Blood samples were collected from a subgroup of animals at necropsy for assessment of hematology, coagulation and clinical chemistry. Study animals were euthanized and subjected to a necropsy examination. Selected organs were weighed and a full list of tissues was retained. A histopathology examination was performed on the full tissue list from all control and high dose animals (200 mg/kg/day) and all abnormalities, while target organs were examined on lower dose groups. Blood samples were collected from the toxicokinetic animals (3 animals/sex/group/time point) on Days 1, 14 and 28 and the animals were euthanized and discarded without examination.

Row | Molecule | # of macrophages per retina (retinal macrophages) | % reduction in macrophage density (retinal macrophages) | % reduction in macrophage density (retinal macrophages; listed as S1P antibody) | perivascular fibrosis ([1]; 25 mg/kg from 48 hrs after surgery, two weeks after infarct) | density of inflammatory macrophages ([1]; four days post-MI) | density of mast cells ([1]; four days post-MI) | choroidal neovascularization (CNV lesions; 14 and 28 days after laser rupture) | fibrosis associated with CNV lesion formation (CNV lesions; 28 days after laser rupture) | average lymphocyte counts (+/-SD) ([2]; 30 mg/kg daily) | average lymphocyte counts (+/-SD) ([2]; 75 mg/kg daily) | average lymphocyte counts (+/-SD) ([2]; 200 mg/kg daily)
1 | LT1009: humanized anti-S1P IgG1/kappa mAb with Cys to Ala in HCDR2, light chain with 5 backmutations; SEQ ID NO: 31/32 | 1136 ± 33 | 55% | 55.4 ± 1.3% | – | – | – | – | – | – | – | –
2 | B1 | – | – | – | almost complete abrogation | dramatically attenuated | dramatically attenuated | dramatically attenuates | significantly reduces | 0.856+/−0.426 10^9 cells/L | 0.902+/−0.269 10^9 cells/L | 0.638+/−0.262 10^9 cells/L
